Laboratory results: patent US20260028421A1 (JIANGSU HENGRUI PHARMACEUTICALS, published 2026)
Positions count from the first letter of the chain named. Values belong to the binder of their own block, whether it stands above or below them.

Legend:
[1] = molecular target: T1, hGUCY2C ECD-His (human, UniProt P25092 24-430); assay: SPR Biacore, antibody captured
T1 construct: also called human GUCY2C protein
Description: To test the affinity of the GUCY2C monoclonal antibodies of the present disclosure for GUCY2C, in this test example, the instruments Biacore 8K and Biacore T200 were used to detect the ability of the antibodies to bind to hGUCY2C-ECD-His (SEQ ID NO: 3). The specific method is as follows: The antibody was affinity-captured using a Protein A biosensor chip conjugated with an anti-human antibody, then a solution containing GUCY2C Protein flowed on the surface of the chip, and reaction signals were detected in real time with an instrument to obtain association and dissociation curves. After dissociation was completed for each cycle, the biosensor chip was washed with 10 mM glycine-hydrochloric acid (pH 1.5) for regeneration. Data fitting was performed using a 1:1 model.

[2] = molecular target: T2, Human GUCY2C protein on cells (HCT116/hGUCY2C, HT-55, T84, LS1034, LS174T) (human, UniProt P25092 24-1073); assay: flow cytometry on T84 cells, PE anti-human IgG Fc secondary antibody
T2 construct: also called GUCY2C on the cell surface

[3] = molecular target: T2, Human GUCY2C protein on cells …; assay: flow cytometry on HCT116/hGUCY2C cells, PE anti-human IgG Fc secondary antibody
[4] = molecular target: T2, Human GUCY2C protein on cells …; assay: as above; remark: listed apart in the source
[5] = molecular target: T1, hGUCY2C ECD-His; assay: competition ELISA, row antibody coated; competitor 146 L1H1-biotinylated
[6] = molecular target: T1, hGUCY2C ECD-His; assay: competition ELISA, row antibody coated; competitor P3-C7 L7H1-biotinylated
[7] = molecular target: T2, Human GUCY2C protein on cells …; assay: flow cytometry on HCT116/hGUCY2C cells, PE anti-human IgG Fc secondary antibody; remark: listed apart in the source
[8] = molecular target: T1, hGUCY2C ECD-His; assay: competition ELISA, row antibody coated; competitor 1608-biotinylated
[9] = molecular target: T1, hGUCY2C ECD-His; assay: competition ELISA, row antibody coated; competitor 81 L3H1-biotinylated

Kd [1]: 8.99 nM
koff [1]: 0.000335 s⁻¹
kon [1]: 37300 M⁻¹ s⁻¹
EC50 (read off the curve) [2]: ~0.5 nM
B1: M42 CHI (antibody, human IgG1, kappa, V domains shown)
VH: QIQLKQSGPGLVQPSQSLSITCTVSGFSLTSYAVHWVRQSPGKGLEWLGVIWTGGNTRSNAAFMSRLTITKDNSKSQVFFKMNSLQADDTAIYFCAKNSLLDYAMDYWGQGTSVTVSS
VL: ENVLTQSPVIMSASPGEKVTMTCRASSFVGSGYLHWYQQKSGASPKLWIYSTSKLASGVPARFSGSGSGTSFFLTISRVEIEDAAAYYCQQSSGYPLTFGGGSKLEIKR
notes: chimeric

EC50 (read off the curve) [3]: ~0.6 nM
Kd [1]: 8.64 nM
koff [1]: 0.000279 s⁻¹
kon [1]: 32300 M⁻¹ s⁻¹
B2: P1-F10 CHI (antibody, human IgG1, kappa, V domains shown)
VH: EVQLVESGGGLVKPGGSLKLSCAASGFAFSDYGMHWVRQAPEKGLEWVAHISSGSSTIYYADTVKGRFTISRDNVKNTLFLQMTSLRSEDTAMYYCARSRNYYGSRVFDYWGQGTPLTVSS
VL: QIVLTQSPALMSVSPGEKVTMTCSASSSVNYMYWYQQKPRSSPKPWIYLTSNLASGVPARFSGSGSGTSYSLTISSMEAEDAATYYCQQWNSNPPTFGSGTKLEIKR
notes: chimeric

Kd [1]: 26.5 nM
koff [1]: 0.000504 s⁻¹
kon [1]: 19000 M⁻¹ s⁻¹
EC50 (read off the curve) [4]: ~1 nM
B3: P3-D9 CHI (antibody, human IgG1, kappa, V domains shown)
VH: B2 VH with A61G, V75A, A97T, P116T
VL: B2 VL with N30S, N52S, S75N, S76N, M77V, N91S, L103V
notes: chimeric

EC50 (read off the curve) [3]: ~0.7 nM
Kd [1]: 19.6 nM
koff [1]: 0.000399 s⁻¹
kon [1]: 20300 M⁻¹ s⁻¹
B4: P1-D9 CHI (antibody, human IgG1, kappa, V domains shown)
VH: B2 VH with A28S, V48I, V75A, V107I, P116T
VL: B2 VL with L10R, V13A, N30S, N91S
notes: chimeric

relative competition coefficient [5]: 81
relative competition coefficient [6]: 3
Kd [1]: 0.29 nM
koff [1]: 5.19e-05 s⁻¹
kon [1]: 181000 M⁻¹ s⁻¹
EC50 (read off the curve) [7]: ~1 nM
relative competition coefficient [8]: 11
relative competition coefficient [9]: 100
B5: 81 L3H1 (antibody, human IgG1, kappa, V domains shown)
VH: EVQLVQSGAEVKKPGASVKVSCKASGYTFTDHNMNWVKQAPGQRLEWMGVMNPKFGTINYNQKFKDKATITRDTSASTAYMELSSLRSEDTAVYYCARDNYPNYFDYWGQGTTVTVSS
VL: DIQLTQSPSFLSASPGDRVTITCSASSSVNYMYWYQQKPGSSPKSWIYRTSNLASGVPSRFSGSGSGTEYTLTISSLQPEDFATYYCQQYHDYPPTFGGGTKVEIKR
notes: humanized, human IgG1/kappa

relative competition coefficient [5]: 13
relative competition coefficient [6]: 100
Kd [1]: 7.77 nM
koff [1]: 0.000186 s⁻¹
kon [1]: 23900 M⁻¹ s⁻¹
EC50 (read off the curve) [7]: ~2 nM
relative competition coefficient [8]: 10
relative competition coefficient [9]: 6
B6: P3-C7 L7H1 (antibody, human IgG1, kappa, V domains shown)
VH: EVQLVQSGAEVKKPGASVKVSCKASGYTFTDHYIHWVRQAPGQGLEWMGVINPYNDGATYNQKFKGRVTMTVDKSTSTVYMELSSLRSEDTAVYYCARPPRAYGNYAGYWGQGTTVTVSS
VL: DVVMTQTPLSLPVTPGEPASISCRSSQSLVHSNQNTYLHWYLQKPGQSPQLLIYKVSNRFSGVPDRFSGSGSRTDFTLKISRVEAEDVGVYYCSQSTHVPYTFGGGTKVEIKR
notes: humanized, human IgG1/kappa

Kd [1]: 4.49 nM
koff [1]: 0.000228 s⁻¹
kon [1]: 50800 M⁻¹ s⁻¹
EC50 (read off the curve) [2]: ~2 nM
B7: M61 CHI (antibody, human IgG1, kappa, V domains shown)
VH: EVQLQQSGPELVRPGASVKISCTASGYTITDYYMSWVKQSHGKSPEWIGDINPNNGGTSDNQKFKGKATLTVDKSSSTAYMEYRSLTSEDSAVYYCARGRGMVARYFDIWGTGTTVTVSS
VL: EILLTQSPTTMAASPGEKITITCSASSSISSNFLHWYQEKPGFSPKLLIYRTSNLASGVPARFSGSGSGTSYSLTIGSMEAEDVATYYCQQGSGLPLTFGAGTKLELKR
notes: chimeric

EC50 (read off the curve) [3]: ~1 nM
Kd [1]: 5.06 nM
koff [1]: 0.000233 s⁻¹
kon [1]: 46000 M⁻¹ s⁻¹
B8: P1-D3 CHI (antibody, human IgG1, kappa, V domains shown)
VH: QIQLIQSGPELKKPGETVKISCKASGYTFTTYGMSWVKQAPGKGLKWMGWINTYSGVPTYADDFKGRFAFSLETSANTAYLQINNLKNEDTATYFCARRGYSNLYYYALDYWGQGASVTVSS
VL: QIVLTQSPAIMSASPGEKVTMTCSASSSVNYMHWYQQKSGTSPKRWIYDTSKLASGVPTRFSGSGSGTSYSLTISSMEAEDAATYFCQQWSSNPSTFGGGTKLEIKR
notes: chimeric

Kd [1]: 8.28 nM
koff [1]: 0.000214 s⁻¹
kon [1]: 25800 M⁻¹ s⁻¹
EC50 (read off the curve) [4]: ~2 nM
B9: P3-B4 CHI (antibody, human IgG1, kappa, V domains shown)
VH: B8 VH with I5V, T17I, N77S, G100A, Y101G, N103S, L109M, A116T
VL: B8 VL with N30S, H33L, T59A, F86Y, S95P
notes: chimeric

relative competition coefficient [5]: 12
EC50 (read off the curve) [3]: ~0.3 nM
relative competition coefficient [6]: 3
EC50 (read off the curve) [7]: ~0.3 nM
EC50 (read off the curve) [4]: ~0.3 nM
relative competition coefficient [8]: 100
relative competition coefficient [9]: 6
B10: 1608 (antibody, human IgG1, kappa, V domains shown)
VH: EVQLVESGGGLVQPGGSLRLSCAASGFTFSSYWMHWVRQAPGKGLEWIGEIKPSNELTNVHEKFKDRFTISVDKAKNSAYLQMNSLRAEDTAVYYCTRTITTTEGYWFFDVWGQGTLVTVSS
VL: DIQLTQSPSSLSASVGDRVTITCRASESVDYYGSSLLQWYQQKPGKAPKLLIYAASKLASGVPSRFSGSGSGTDFTLTISSLQPEDFATYYCQQTRKAYTFGQGTKLEIKR

relative competition coefficient [5]: 100
relative competition coefficient [6]: 4
Kd [1]: 0.92 nM
koff [1]: 0.000117 s⁻¹
kon [1]: 127000 M⁻¹ s⁻¹
EC50 (read off the curve) [7]: ~2 nM
relative competition coefficient [8]: 12
relative competition coefficient [9]: 99
B11: 146 L1H1 (antibody, human IgG1, kappa, V domains shown)
VH: EFQLVQSGAEVKKPGASVKVSCKASGYSFTDYNMNWVRQAPGQRLEWMGLINPKYGTTNYNQKFKGRVTLTVDQSSSTAYMELSSLRSEDTAVYYCARDNYPAWFAYWGQGTTVTVSS
VL: EIVLTQSPATLSLSPGERATLSCSASSSLNYMYWYQQKPGSSPRPWIYRTSQLASGVPARFSGSGSGTDYTLTISSLEPEDFAVYYCQQYHSYPPTFGGGTKVEIKR
notes: humanized, human IgG1/kappa

Kd [1]: 37 nM
koff [1]: 0.000245 s⁻¹
kon [1]: 6610 M⁻¹ s⁻¹
EC50 (read off the curve) [4]: ~2 nM
B12: P3-F6 CHI (antibody, human IgG1, kappa, V domains shown)
VH: EVQLQQSGPELVKPGASVKISCKASGYTFTDYYMNWVKQSHGKSLEWIGDINPNNGGTSYNQKFKGKATLTVDKSSSTAYMELRSLTSEDSAVYYCARKTWLPYASVYWGQGTSVTVSS
VL: DVVMTQTPLSLPVSLGDQASISCRSSQSLVHSNGNTYLHWYLQKPGQSPKLLIYKVSNRFSGVPDRFSGSGSGTDFTLKISRVEAEDLGVYFCSQSTHVPPYTFGGGTKLEIKR
notes: chimeric
